Results from publication PMC12205875, “CRY1–GAIP1 complex mediates blue light to hinder the repression of PIF5 on AGL5 to promote carotenoid biosynthesis in mango fruit”.

How the values were obtained:
MiPIF5 = target: T1, MiPIF5 (Mangifera indica, UniProt UPI001CFAADE4 1-539); test: EMSA; LightShift Chemiluminescent EMSA kit (Thermo) per manufacturer; buffer, salt, pH and temperature not stated; settings: protein: recombinant; tags: GST (pGEX4T); chain copies: 2; label: 3' biotin; blunt
T1 sequence: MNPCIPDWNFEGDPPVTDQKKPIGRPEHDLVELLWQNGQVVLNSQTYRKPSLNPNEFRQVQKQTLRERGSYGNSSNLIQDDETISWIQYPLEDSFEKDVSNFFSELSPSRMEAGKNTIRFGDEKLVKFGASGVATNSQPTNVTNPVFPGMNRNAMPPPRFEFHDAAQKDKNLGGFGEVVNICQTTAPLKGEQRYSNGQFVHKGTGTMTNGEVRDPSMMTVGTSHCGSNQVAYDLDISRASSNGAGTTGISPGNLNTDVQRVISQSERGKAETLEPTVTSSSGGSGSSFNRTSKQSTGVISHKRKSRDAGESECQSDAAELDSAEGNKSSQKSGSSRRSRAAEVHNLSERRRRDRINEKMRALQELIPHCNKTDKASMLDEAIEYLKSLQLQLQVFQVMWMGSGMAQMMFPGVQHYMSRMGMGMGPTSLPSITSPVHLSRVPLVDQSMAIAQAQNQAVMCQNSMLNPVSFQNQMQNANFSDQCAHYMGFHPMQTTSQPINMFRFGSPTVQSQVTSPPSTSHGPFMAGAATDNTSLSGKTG

MiGAIP1 (DELLA) = target: T2, MiGAIP1 (DELLA) (Mangifera indica, UniProt UPI001CFB1029 1-553); test: as above; settings: protein: recombinant; tags: GST (pGEX4T); label: 3' biotin; blunt
T2 sequence: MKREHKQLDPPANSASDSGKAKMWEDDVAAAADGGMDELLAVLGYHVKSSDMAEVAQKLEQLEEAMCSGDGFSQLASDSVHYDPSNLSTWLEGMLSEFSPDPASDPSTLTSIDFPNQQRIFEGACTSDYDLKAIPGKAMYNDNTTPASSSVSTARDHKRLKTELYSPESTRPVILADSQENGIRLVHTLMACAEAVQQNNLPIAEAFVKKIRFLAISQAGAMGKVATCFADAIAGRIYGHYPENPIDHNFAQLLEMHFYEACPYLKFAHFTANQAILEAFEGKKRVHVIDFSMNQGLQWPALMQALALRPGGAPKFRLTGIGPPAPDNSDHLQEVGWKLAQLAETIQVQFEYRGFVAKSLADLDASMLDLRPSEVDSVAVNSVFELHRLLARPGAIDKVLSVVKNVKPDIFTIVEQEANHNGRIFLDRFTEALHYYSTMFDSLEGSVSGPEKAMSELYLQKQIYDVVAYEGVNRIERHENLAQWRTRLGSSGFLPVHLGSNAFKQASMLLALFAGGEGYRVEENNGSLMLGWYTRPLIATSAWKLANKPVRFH

B1: ProMiAGL5-Probe (MiPIF5) (dsDNA)
DNA 1: GAGCATCACATGGGAGTCTATTTTCACTTTGTAATTTGAAAAGGAAAGAGATATATAC
DNA 2: GTATATATCTCTTTCCTTTTCAAATTACAAAGTGAAAATAGACTCCCATGTGATGCTC
binding result (MiPIF5): binds

B2: ProMiAGL5-Probe (MiGAIP1) (dsDNA)
DNA 1: TTTCAACAATCAAGAAATGAGAAAGGAAAGAAGAAAAAAGAAAGAAAAAAAAAAAAAGTGTCT
DNA 2: AGACACTTTTTTTTTTTTTCTTTCTTTTTTCTTCTTTCCTTTCTCATTTCTTGATTGTTGAAA
binding result (MiGAIP1 (DELLA)): binds
